This passage reports protein production results from a protein production outcome set (Wang et al. 2014).

This data set can be described thus: label from the status in PepcDB records.
As to “SDDINQKVAEQLAQKAQSSSLGYDIVESLTVEVGPRLAGSEQDKVAVDWAIAKLQSLGFDRVYKEPVTVPVWRRGIAKASILSPFPQPLVVTALGGSIATPAQGLSATIVRFDTLQDLQNAEAGSLNDKIAFIDAKTERHRDGKGYGQTASGRSRGAVAAAEKGAVGIIIRSIGTDHDRMAHTGMMRYEEGVTAIPAAAISNPDADLINAMLKRDKEVVISLELGSERRGETTSYNVIAEVKGSTKADEIVLIGAHLDSWDEGTGAIDDGAGVAIVTAAAKHILDLPQKPERTIRVVLYAAEELGLLGGKTYAKEHEAELEKHYIAAESDFGAGPIYQIDWRVADTAHSPVINAMKVAEPLGVAAGNNKASGGPDVSMLPALGVPVASLRQDGSDYFDYHHTPNDTLDKINPEALAQNVAVYAQFAWVMANSKVELRPLPPKE”, the protein production result is reported as “not failed”.

In the case of “MGAVGRGRRMSERHLRRSTHKVGDITLGAVHRLNCHCGAVQIDLDLPHGLVDPRRCDCSMCRRRGAIVASVPLQGLHVRQGEDVLRLYQFNTHAAAHYFCGVCGIYTHHRRRSNPNEYGYNVGCLEGVNPYALNITVPVEDGIHHPADRVAPQLEHHHHHH”, the protein production entry is recorded as “failed”.

Take “MGTLTCKDLNHKYRDTTMYKQQQIKQWFCGLSSITCQHISDWQKPHLGVLCAASAFLVLAAPVVNLPGSKLLAQTPISRDLETASFYQQGVTRYNRSDWQGAENAFRQALQREPNLAMARAYLGNIYLMQNRLDVAVQEYGEAIRLNPNLGETYYNLGLALQQQGKKEGAITAYRQALVIDPRRVEAYYNLGLVLYEQGLLQEAIAAYQDAVNLEPSKINAHHNLAIALQQTGKMEEAIVAYREVLKLDPKNAAAYSSLGSLMAMQGRPEEAIAAYTQAVRQDPKNALAYYNLGITLYNQGELQKASNAFKRAQEEYSQQGNLEQTEKTEQLMQQVAQKIEEQKLQQRQASTPKPTDNSTNNLLEKLTQLTAPKEQPANSGAVPVSDEQKQFPPIFPNTNSR”: the protein production result is recorded as “failed”.

“MEKQIFCQFLVVMMLLSSSQIQGDLRKGCYDLGITVLMGCPDSIDKKLPAPPTPSEGCCTLVRTIGMKCVCEIVNKKIEDTIDMQKLVNVAAACGRPLAPGSQCGSYRVPGA”: the protein production result is “failed”.

Consider “MEQRVLGGRYLLKDKVGTGGMATVYRAQDQVLDRTVAVKIMLPQYAGDATFAARFKQEAQAAAGLSSPYIVGVYDWGKDGDTYYIVMEYLRGTDLKSGIKSHGALDPKKVAQIGSQISSALSVAHKHEIIHRDIKPQNIMVLPDGNIKVMDFGIARAKNSHLTQDNNVLGTAHYVSPEQTRGQDLGPTSDIYSLGVVMYECATGRVPFDGDDAISVALKQVNELPIPPSQINSGVDADLERIILKCMEKDPTNRFQTADELRQVLNSYLSGRAVNVSEPTRIIGAPGELGATKTRELSDQTRAMVRPVSGVSGQNTARSSVSGSTGSYEVEEPKSNKNKIIAAVVAAVAVIGIVVAFATGLFGGEQVTVPDVLGKDQQTAVELIKEAGLEVGTIDQSYNDDVDEGKVAEQTPNGNTKKTKGTKVNLVISKGPKPSEKVEVPKLVGLTKDQAEAALASVGLKGNASEEANEADEGQVFEQGTEAGKEVAKGTTISYKVSSGPDTTSVPDLTDMTEAQARNALDMAGFGVDVSYQENDSVTEGTVISWNPSGKQKPGATITVVIAKKSGKATVPGNLYGKSISAAVTALNNAGFYNIGFCDQNGNPVSGNEDATVTGVSPTGKQSTDSTITLTVALSGSGSGSGTSTGDDSGTTN”, for which the protein production result was “failed”.

For the sequence “MSAHLLIILPLIIPFVAAVAALLFARWPTVQKGINIVSMGGILAASLGLLSRITEQGIQVTTIGDWPVPFGIVFVVDHLSVVMLIVSAIIGLAVAVYAVPDVDDARVRFGFYPFFNLLMIGINGAFLTGDLFNLYVWFEVMLISSFVLIVLGNTDEQLAGAVKYVVINLVSSLLFLSGVGLVYGMTGTLNMAELSLALSEVGQPGLVTVVAMLFLISFGIKAALFPLFFWLPASYHTPPASVSAFFAGLLTKVGVYALFRVFTLLFTQDVGYTHTLLLWGAGLTMVTGVLGAAVQNDFRRVLSFHIVSQIGYMIMGLALYTPLAILGGVFYIVHHIIVKANLFLVSGVAKRLRGSFSLKSLDGLYAYHPWLAALFIIPAFSLAGFPPLSGFWAKLILTIAGIETGAYWIVTVAVAVGLFTMFSMTKIWVKAFLPGGGGDLADAVSSMGLGTRVMYVPIAGLAALTIMISVFAGPVYDLAERSADELYNSSEYVEAVLNHEKSAADAGPRPGVDGRTGRVHAR”, the protein production result was “failed”.

Consider “MSHAVVSWTLWSLALYLTLPYLSSAIEHSINNPLFVGPFYIISSGIGSLSLLALERHVKLLSTIGLALSGIGLLMIGVDANQLLTIIGFIFYNLYWLSVPIFYYLLSEEEGSLTKAWSISMVPAIIMPVIAGILIRWGEIIIFILGGLLQLTSSIILILVKHRIDEDHMVGYDVGIPKNVIFVVLPLSIVMPFLYLDVRESLIWVIYSSGQILGILMSWFLWKSKNAIMLSLIIFSGIIFSVFSPIGILFYGSSEALVALGIEKSRPSLMKHAIKVALTEALVWTVGYAVGSLLYYISGFLPFIYSSLVSLILAMIIGLFSSLTFNSVISKNPLKNTIPFKIVRYLTLREGIFPYFKIS”, for which the protein production entry is reported as “failed”.

With “MSVSPSPFNGAEHPIKGIALICLAVLLFASHDTLSKYLSAFYPIVMVVWARYVVHTLLMLVVFVPRSGFSAVVRTKRPGLQLLRALCLIGTSLLFTTGLRYIPLAEATAVNFLAPLLVTALSVPFLGERVSRAQWLAVLAGFVGVLIVVRPGGALFTPAILLPLGSALCFGFYQLLTRKLSGVDSPTTSNFLTGILNSLIMSALLPFFWSTPTLVHGLFMIGLGTCGMLGHMLLTQAFRHAAPAMLAPFSYGQILFAGLFGYLIFDHTPDQYALVGIAVICLSGLAVAWAQRKR”, the protein production result is given as “failed”.

Consider “MAQFLEKATSALSEAKESVTSTAESVTASLTDAEKTVNQTARSTLTDAETTVAASVETVKTEAAAAPDKASGVSTQAKDAVDKAFSRGIEGAKSLLQTFEAKSSDISSKLVGGVTNLVSGASSSTVANRDLPVSTDNQPLLASGEKTPWWKNCCGVLDLFKKDT”, for which the protein production entry was “failed”.

On to “MGLSNKFKSFFFLDEEEEYYEEEVAREPEPMQKKTKKEKPSKNRFYAVEEEDAKVVSMQGAQFSSRMVLAEPRVYAEAQELADYLKDYKTVVVNLQRISHDQATRIVDFLSGTVYALGGDIQRVGNNIFLTPDNVEVNGSISEMLDEQNFMLEHHHHHH”, for which the protein production entry is on record as “failed”.

As to “DHSLAIIEFDLSSRIIEVNQNYLDYFGYQRDEVIGQYHLMFCHPGYANSDEYQKIKTSLLAGQSLEGRFERIHKDGSRVWLAAIYQPVSGPDGSVTRIVKIAKNIT”, the protein production entry is recorded as “failed”.

As for “MTEIYTSVLSYRLLEGKAYSDADTRSLDRMMRSIDEFFSANPGYINFHIYRSYRTDSDVIFWYSSRNPDLMILAKERVQASMRPIAVSSFSSISIYDESPYNAMNKKLEDSLRLPPLRYFVAYPMSKTPDWYLLDFDTRKEIMHEHIKMALNHPDEKGIRSYTTYSFGIGDQEFVVLYEIPDIAAWSRVTEKLREARARKWIIKETPILLGRLVDAGDIAGFLL”, the protein production result is reported as “not failed”.

Turning to “MRARHASCMHPPSLSADPVALMTDTPASSETSASGWRRALPVIVSLAILAMALHALSSQFTDHGYRQIRHAFRALGAGQITLTLLLGLSSYVCLVGFDWVGLKRTGKQLHPARVGITAFMAHAVGQTLGFAALTGGAVRLRGYGSVGLTLAEIGQVVLMSTLGFIFGAWVLLGLALMLEPEAAARALPITAQAIRIAGIALLVGYVAMLMLVGRQGREFGIRSHRFWLPDRTTVLGVTALSVVELGLAAAAFYVLLPPDSGTGYFGFIGIWLVAVVAGLISTVPAGLGVFEWSLLELLPHVTPAAVLAAALVYRVTYYIVPLLISVAMAAASGLRVPVRVGASTARSVWKALRPWLPQILALAVFAVGAALVIDGTLPTPAARQEVAPLPLIETSHLLVSLGGMMLLLIGQGLQRRSHSAWMLALGVCLLVPPFALLRGSHISVSLSAALAAVALWAARREFYRQGALLDEAWSWRWLSNLGLVLVATFWLLFFVYSHVEYSNDLWWQFATSANAPRALRAALILCVGVIVFGMARLLRGGRRPMPAADAPTLRTLAPILATSTDTQACLALTGDKAFLLDEQSSGFVMMQRYGGSLISMGDPVGSPEVARALIWRFREEADQMGLRTVFYQVGEKHWQTYLDMGLTLVKLGEEAIVPLEGFTLEGRDRADLRQAWNRGKRGGLSFRMLQPEQVDEVLPRLAEVSDQWMEEKSGEEKGFSLGSFDADYLRRFPVAVAEAEGQIVAFANVWWAPAGGELSVDLMRHSAEAPKGTMDFLFIELFLWGQANGYTRFSLGMAPLSGLAEHRLAGRWNRFASLVARHGERFYGFSGLRRFKSKFDPTWRPRYLVAPGGMHLPAALLDVTRLISADPRRQE”, the protein production entry was “failed”.

Turning to “KKSKYMTPMQQKLNEVYEAVKNYTDKRGRRLSAIFLRLPSRSELPDYYLTIKKPMDMEKIRSHMMANKYQDIDSMVEDFVMMFNNACTYNEPESLIYKDALVLHKVLLETRRD”, the protein production result is given as “not failed”.

As to “MISKVIEALAVFTTSVISSMGYGGIVLLMAIESACIPLPSEIIMPFAGYLVYRGEMTLHGAALAGAIGCVVGSIPAYYLGQFGGRPLIEKYGRYVLLSHKELDLADRLFQRWGQWVVFAGRLLPVVRTFIAFPAGVSRMPMGKFIAYTFVGSYPWCYALAWVGEWAGEAWHTDPRVKAVYHRFELVIVVAGVLAVAWFVWHKVKEARRARVPAAADEG”, the protein production result is listed as “failed”.

Regarding “MDMGNQHPSISRLQEIQREVKAIEPQVVGFSGLSDDKNYKRLERILTKQLFEIDSVDTEGKGDIQQARKRAAQETERLLKELEQNA”, the protein production entry is “not failed”.

On to “MNMKLQVTVLKGDVIENGYEVVDAVEGNGNNDDSGDDGGEDEEGSADDAEGKETKKGPVSDPDLNGEAGDNDDEPEGDDGNDDEDDDNHENDDEDEEEDEDENDDGGEEDDDEDAEVEEEEEEEDEDDEEALQPPKKRKK”, for which the protein production result is listed as “failed”.

“MTQMKIFVIGAHGQIGKKIVSKLVAQGDQVYAGIRQPEQAEAFEDAGAQPVQFNLMAQPEDLALAFNGMDAIVFAAGSGGQTGYDMTLMIDLDGAVKSMVAAKIAGVKRYVIISAEFTPDRSRWPRALQPYYVAKYYADEWLKNRTQLDYTILQPGTLINDAGTGKVTVNPDVGGEITRDDVATFTVQTLHTPATVGKTIALINGDTPISKAVQQA”: the protein production entry is on record as “failed”.

For the sequence “MPCRGLHAIPAGPPEFPELATIYVVCGDKLNVMIDAGVTNSIMDSSFLEKLDLVILTHIHIDHIGLLPEILDRYKNAKVMIKNGFKKFLTTEDGVRRLNESSEKVLGDLYYIYGEFTKIDPDKVVEVEGGEMIDIGDGKTLKIIYTPGHAKHHISVVSDDILFTGDSGGAYFNGAVIPTTPPPLDYDNYVNSLRLQISLKPKVVGLAHGGLVSPNILEQHLDQMLGKESFDIGEIDIGGIGGEILRKQVEVNLRGLNEALGRNKKTLLEHHHHHH”, the protein production entry is on record as “failed”.

With “MSSWMMVPVVFLTAYSDPETIGRARRAGAYGYLLKPYDDRKLRAAVETALRRYRADVRDILKVHETAVRGPVPGVLIVEDEAIIAADLKQKLENAGFRVLGVHDTGEGAIAAASELEPDVVIMDVYIRGEMDGIKAAERIQERYGIPVIYLTAYSDDATLSRILESEPYGYLLKPLNTEQLQAEIEVVLENLRTTEDYSRRVREVLVTKAEEMKIEKTGIFFVSSVITALAVYGFITGSMTWLMYTLFIPTVYSLMHLAFSFGEPEKPSSSAMPMVSIIVPANNEENTIEGCVETLSALDYHVNGERNYEIIVVNDGSTDRTGEILEGLLRKHRHLKAVTRKAPFAFNGRVMPSMMVSPLPRGIL”, the protein production entry is “failed”.

Turning to “MEQEILALFEKILSRKVGFNDELIESDILDSILAVDLVLEVQDVYGCVIPPTEVATVLKTPADLARYIEENRG”, the protein production entry was “failed”.
